Experimental findings from the RNAGym collection of RNA variant scans (doi:10.1021/acssynbio.7b00057) are described below.

The labels stand for the following.
B1: Pistol ribozyme (parent)
chain: GGGUCGUUGUUCCAUAAUCGCGUGGAUAUGGCACGCAAGUUUCUACCGGGCACCGUAAAUGUCCGACUGGAGCCGUUCGGGCGGCUAUAAACAGACCUCAGGCCCGAAGCGUGGCGGCACCUGCCGCCGGUGGUAAAAAAGAUCGGAAGAGCACACGUCU

Variants of B1 are the subject of this data set. Nature of the data set: aptazyme ON/OFF ratio, guanine; higher = stronger switching; co-transcriptional cleavage with and without guanine.
Take U8C U10G U11C C12G C13G: the “aptazyme ON/OFF ratio” value turned out to be 1.17.

Turning to U8C U10G U11C C12G C13A, the “aptazyme ON/OFF ratio” value was 1.18.

As for U8C U10G U11C C12G C13U, the “aptazyme ON/OFF ratio” value was 1.32. Next, U8C U11A C12G C13A: 1.1. In the case of U8C U11A C12G C13G it was 1.16. As for U8C U11A C12G C13U, the “aptazyme ON/OFF ratio” value turned out to be 1.14. Take U8C U10G U11C C12U C13U: the “aptazyme ON/OFF ratio” value was found to be 1.28. In the case of U8C U10G U11C C12U C13A it was 1.26.

As to U8C U10G U11C C12U C13G, the “aptazyme ON/OFF ratio” value was 1.19. Next, U8C U10G U11C C12A: 2.79. In the case of U8C U10G U11C C12U, the “aptazyme ON/OFF ratio” value was 1.21.

On to U8C U10G U11C C12G, for which the “aptazyme ON/OFF ratio” value stood at 1.78. Next, U8C U10G U11G C12A C13A: 1.11; U8C U10G U11G C12A C13U: 1.22. Next, U8C U10G U11G C12A C13G: 1.09; U8G G9A U10A U11A: 1.6. Next, U8G G9A U10A U11A C12G C13G: 1.39; U8G G9A U10A U11A C12G C13A: 1.22.

Consider U8G G9A U10A U11A C12G C13U, for which the “aptazyme ON/OFF ratio” value is 1.27. For U8G G9A U10A, the “aptazyme ON/OFF ratio” value turned out to be 1.24. Next, U8G C12G C13A: 1.2. Next, U8G C12G C13U: 1.55. In the case of U8G C12G C13G it was 1.15; in that of U8C U11C C12U C13A, 1.19. Regarding U8C U11C C12U C13U, the “aptazyme ON/OFF ratio” value was 1.33. For U8C U11C C12U C13G, the “aptazyme ON/OFF ratio” value is 1.5. Next, U8C U10G U11C C13A: 1.05; U8C U10G U11C C13U: 1.04. Next, U8C U10G U11C C13G: 1.07.

For the variant U8G G9A C12A C13U, the “aptazyme ON/OFF ratio” value was found to be 1.39. In the case of U8G G9A C12A C13A it was 1.25.

With U8G G9A C12A C13G, the “aptazyme ON/OFF ratio” value was 1.27. Next, U8G G9A C13A: 1.24. In the case of U8G G9A C13U it was 1.28; in that of U8G G9A C13G, 1.07. On to U8G G9A U10A C13U, for which the “aptazyme ON/OFF ratio” value amounted to 1.22.

For U8G G9A U10A C13G, the “aptazyme ON/OFF ratio” value came out at 1.08. In the case of U8G G9A U10A C13A it was 1.25; in that of U8C U10G U11A C12A, 1.32. Next, U8C U10G U11A C12G: 1.23; U8C U10G U11A C12U: 1.08; U8G G9A U10A C12A C13G: 1.18. In the case of U8G G9A U10A C12A C13U it was 1.26; in that of U8G G9A U10A C12A C13A, 1.33; in that of U8C U11G C12G C13U, 1.11.

As to U8C U11G C12G C13G, the “aptazyme ON/OFF ratio” value turned out to be 1.19.

Consider U8C U11G C12G C13A, for which the “aptazyme ON/OFF ratio” value turned out to be 1.13. In the case of U8C U11G C12G it was 1.23. Next, U8C U11G C12U: 1.26; U8C U11G C12A: 1.15. Turning to U8G G9A C12G, the “aptazyme ON/OFF ratio” value came out at 1.16. In the case of U8G G9A C12A it was 1.61. Regarding U8G G9A C12U, the “aptazyme ON/OFF ratio” value is 1.39.

For U8G C12U C13A, the “aptazyme ON/OFF ratio” value stood at 1.23. As for U8G C12U C13U, the “aptazyme ON/OFF ratio” value turned out to be 1.18. In the case of U8G C12U C13G it was 1.4. In the case of U8G C12G it was 1.52; in that of U8G C12A, 1.69; in that of U8G C12U, 1.64.

In the case of U8G G9A U10A U11A C12A C13G, the “aptazyme ON/OFF ratio” value was determined as 1.18. Next, U8G G9A U10A U11A C12A C13A: 1.21; U8G G9A U10A U11A C12A C13U: 1.26; U8C U10G U11A C12G C13A: 1.13. Next, U8C U10G U11A C12G C13G: 1.15; U8C U10G U11A C12G C13U: 1.18; U8C U10G U11G C12U C13G: 1.12.

Regarding U8C U10G U11G C12U C13U, the “aptazyme ON/OFF ratio” value was determined as 1.23. In the case of U8C U10G U11G C12U C13A it was 1.11; in that of U8C U11A C13A, 1.13; in that of U8C U11A C13U, 1.11. Next, U8C U11A C13G: 1.07; U8C U10G U11A C12A C13A: 1.18; U8C U10G U11A C12A C13G: 1.15. Next, U8C U10G U11A C12A C13U: 1.2; U8C U10G U11G C12G C13U: 1.26; U8C U10G U11G C12G C13G: 1.13.

With U8C U10G U11G C12G C13A, the “aptazyme ON/OFF ratio” value is 1.16. In the case of U8G C13U it was 1.27; in that of U8G C13G, 1.2. Next, U8G C13A: 1.3; U8C U10G C13G: 1.15; U8C U10G C13A: 1.27. In the case of U8C U10G C13U it was 1.37.
